# Experimental data: US20170355774A1 (Regeneron, published 2017)
# B1: H4H14528P (antibody, human IgG4, V domains shown)
# VH: QVQLVESGGGVVQPGRSLRISCAASGFTFNNYGFHWVRQAPGRGLEWVAVIWYSGSNKYYGDSVKGRFTISRDNSKNILYLQMNSLRAEDTAIYYCARFPFSSSWLLDYWGQGTLVTVSS
# VL: DIQLTQSPSFLSASVGDRVTFTCWASQGISDYLAWYQQKPGKAPKLLIYAASALQSGVPSRFSGSGSGTEFTLTVSSLQPEDFATYYCQQLNSYPFTFGPGTKVDIK
# notes: human IgG4 (H4H)
# B2: H4H14539P2 (antibody, human IgG4, V domains shown)
# VH: QVQLVESGGGVVQPGRSLRLSCAASGFSFSSYGMHWVRQAPGKGLEWMAVIWYAGSNKFYADSVKGRFTISRDNSKNTLYLQMNSLTAEDTAVYYCARGSSLAAPDLYKYGMDVWGQGTTVTVSS
# VL: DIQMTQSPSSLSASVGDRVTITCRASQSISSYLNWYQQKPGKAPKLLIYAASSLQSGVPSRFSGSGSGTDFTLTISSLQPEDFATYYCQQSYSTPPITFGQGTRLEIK
# notes: human IgG4 (H4H)
# B3: H4H14470P (antibody, human IgG4, V domains shown)
# VH: QVQLVESGGGVVQPGRSLRLSCAASGFTVRNYGMHWVRQAPGKGLEWVAVIWYDGSNKYYADSVKGRFTISRDNSKNTLFLQMNSLRAEDTAVYYCARGGELVRGDYYYGMDVWGQGTTVTVSS
# VL: DIQMTQSPSSLSASVGDRVTITCRASQGIRNDLGWYQQKPGKAPKRLIYGASSLQSGVPSRFSGSGSGTEFTLTISSLQPEDFATYYCLQHNSYPYTFGQGTKLEIK
# notes: human IgG4 (H4H)
# Columns and labels:
# hGITR.mmh = molecular target: T1, hGITR.mmh (human); test: SPR 37C, mAb capture
# T1 construct: soluble monomeric construct; also called human (h) GITR.mmh; monomeric human GITR
# T1 chain: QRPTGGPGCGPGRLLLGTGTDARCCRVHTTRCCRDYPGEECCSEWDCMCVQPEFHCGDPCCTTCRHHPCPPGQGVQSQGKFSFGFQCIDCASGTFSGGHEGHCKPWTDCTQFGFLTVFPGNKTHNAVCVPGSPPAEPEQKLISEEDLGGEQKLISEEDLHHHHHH
# mfGITR.mmh = molecular target: T2, mfGITR.mmh (Macaca fasicularis); test: SPR 37C, mAb capture
# T2 construct: soluble monomeric construct; also called Macaca fasicularis (mf) GITR.mmh; cynomolgus GITR protein
# T2 chain: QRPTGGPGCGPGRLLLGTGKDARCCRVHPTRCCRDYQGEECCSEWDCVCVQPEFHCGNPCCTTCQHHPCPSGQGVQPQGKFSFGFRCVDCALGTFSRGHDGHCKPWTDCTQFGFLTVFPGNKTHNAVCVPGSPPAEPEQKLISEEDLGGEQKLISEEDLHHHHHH
# hGITR.mFc = molecular target: T3, hGITR.mFc (human); test: SPR 37C, mAb capture
# T3 construct: soluble dimeric construct with mouse Fc; also called dimeric human GITR
# T3 chain: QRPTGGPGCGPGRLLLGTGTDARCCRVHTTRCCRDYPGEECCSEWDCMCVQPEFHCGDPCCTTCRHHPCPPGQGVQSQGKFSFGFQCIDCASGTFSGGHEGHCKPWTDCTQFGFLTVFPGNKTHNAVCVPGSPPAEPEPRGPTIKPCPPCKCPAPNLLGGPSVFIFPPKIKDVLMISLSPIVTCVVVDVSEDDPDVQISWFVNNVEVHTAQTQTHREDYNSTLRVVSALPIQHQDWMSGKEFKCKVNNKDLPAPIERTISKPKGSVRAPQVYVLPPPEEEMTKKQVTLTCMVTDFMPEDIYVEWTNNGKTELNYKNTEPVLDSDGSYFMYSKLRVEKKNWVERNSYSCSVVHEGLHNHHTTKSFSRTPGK
# [1] = molecular target: T4, human GITR (amino acids M1-V241, NCBI Accession #NP_004186.1) expressed on cells (human, UniProt Q9Y5U5 26-241); test: cell-based or functional assay
# T4 sequence: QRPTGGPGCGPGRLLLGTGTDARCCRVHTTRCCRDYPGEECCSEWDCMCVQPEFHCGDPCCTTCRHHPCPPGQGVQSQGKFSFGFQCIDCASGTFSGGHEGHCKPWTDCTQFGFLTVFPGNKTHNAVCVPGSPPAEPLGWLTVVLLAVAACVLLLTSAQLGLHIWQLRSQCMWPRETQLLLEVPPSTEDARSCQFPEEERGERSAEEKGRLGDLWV
# [2] = molecular target: T4, human GITR (amino acids M1-V241, NCBI …); test: cell-based or functional assay; remark: listed apart in the source
# [3] = molecular target: T4, human GITR (amino acids M1-V241, NCBI …); test: cell-based or functional assay; remark: listed apart in the source
# [4] = molecular target: T4, human GITR (amino acids M1-V241, NCBI …); test: cell-based or functional assay; remark: listed apart in the source
# [5] = molecular target: T4, human GITR (amino acids M1-V241, NCBI …); test: ECL cell binding, hGITR/HEK293-D9
# Summary of the method: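 Cells blocked with 2% BSA, then antibody dilutions from 1.7 pM to 100 nM added 1 h at RT. Bound antibody detected with SULFO-TAG anti-human kappa antibody, electrochemiluminescence read, RLU fitted by four-parameter logistic; signal at 100 nM on hGITR cells versus parental cells also recorded.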
Binder,Kd (hGITR.mmh) [nM],koff (hGITR.mmh) [s⁻¹],kon (hGITR.mmh) [M⁻¹ s⁻¹],t½ (hGITR.mmh) [min],Kd (hGITR.mFc) [nM],koff (hGITR.mFc) [s⁻¹],kon (hGITR.mFc) [M⁻¹ s⁻¹],t½ (hGITR.mFc) [min],"fold activation, T-cell proliferation, 22 nM, non-anchored, donor 1 [1] [fold]","fold activation, T-cell proliferation, 22 nM, non-anchored, donor 2 [1] [fold]","fold activation, T-cell proliferation, 22 nM, non-anchored, donor 3 [1] [fold]","fold activation, T-cell proliferation, 22 nM, non-anchored, donor 4 [1] [fold]","fold activation, T-cell proliferation, 22 nM, non-anchored, mean [1] [fold]","fold activation, T-cell proliferation, plate-bound Ab 10.6 nM, donor 1 [2] [fold]","fold activation, T-cell proliferation, plate-bound Ab 10.6 nM, donor 2 [2] [fold]","fold activation, T-cell proliferation, plate-bound Ab 10.6 nM, donor 3 [2] [fold]","fold activation, T-cell proliferation, plate-bound Ab 10.6 nM, donor 4 [2] [fold]","fold activation, T-cell proliferation, plate-bound Ab 10.6 nM, donor 5 [2] [fold]","fold activation, T-cell proliferation, plate-bound Ab 10.6 nM, donor 6 [2] [fold]","fold activation, T-cell proliferation, plate-bound Ab 10.6 nM, donor 7 [2] [fold]",also measured
B1,51.3,0.00523,102000,2.2,1.12,0.00177,1.58e+06,6.5,0.6,0.8,0.9,1,0.8,2,8,8,4,8,31,5,"binding result (mfGITR.mmh): no binding; fold activation, T-cell proliferation, plate-bound Ab 10.6 nM, donor 8 [2]: 4 fold; fold activation, T-cell proliferation, plate-bound Ab 10.6 nM, mean [2]: 8 fold; fold activation, T-cell proliferation, 33 nM, FcgR anchored, donor 1 [3]: 0.9 fold; fold activation, T-cell proliferation, 33 nM, FcgR anchored, donor 2 [3]: 1.5 fold; fold activation, T-cell proliferation, 33 nM, FcgR anchored, donor 3 [3]: 1.1 fold; fold activation, T-cell proliferation, 33 nM, FcgR anchored, donor 4 [3]: 1.9 fold; fold activation, T-cell proliferation, 33 nM, FcgR anchored, donor 5 [3]: 1.7 fold; fold activation, T-cell proliferation, 33 nM, FcgR anchored, mean [3]: 1.4 fold; % Activation, NF-kB-Luc, non-anchored [4]: 30%; % Blocking, NF-kB-Luc, non-anchored [4]: 90%; EC50, hGITR activation, NF-kB-Luc, non-anchored [4]: 1.1 nM; IC50, blocking of hGITRL stimulation, NF-kB-Luc, non-anchored [4]: 3.4 nM; Average Signal (RLU) at 100 nM [5]: 7310 RLU; EC50 [5]: 0.45 nM"
B2,82.5,0.0177,214000,0.7,0.554,0.000472,853000,24.5,0.5,0.8,1.1,0.8,0.8,2,12,12,13,12,39,11,"Kd (mfGITR.mmh): 22.8 nM; koff (mfGITR.mmh): 0.00165 s⁻¹; kon (mfGITR.mmh): 72300 M⁻¹ s⁻¹; t½ (mfGITR.mmh): 7 min; fold activation, T-cell proliferation, plate-bound Ab 10.6 nM, donor 8 [2]: 6 fold; fold activation, T-cell proliferation, plate-bound Ab 10.6 nM, mean [2]: 13 fold; fold activation, T-cell proliferation, 33 nM, FcgR anchored, donor 1 [3]: 0.9 fold; fold activation, T-cell proliferation, 33 nM, FcgR anchored, donor 2 [3]: 0.7 fold; fold activation, T-cell proliferation, 33 nM, FcgR anchored, donor 3 [3]: 1.1 fold; fold activation, T-cell proliferation, 33 nM, FcgR anchored, donor 4 [3]: 1.5 fold; fold activation, T-cell proliferation, 33 nM, FcgR anchored, donor 5 [3]: 1.5 fold; fold activation, T-cell proliferation, 33 nM, FcgR anchored, mean [3]: 1.1 fold; % Activation, NF-kB-Luc, non-anchored [4]: 20%; % Blocking, NF-kB-Luc, non-anchored [4]: 30%; EC50, hGITR activation, NF-kB-Luc, non-anchored [4]: 1.3 nM; IC50, blocking of hGITRL stimulation, NF-kB-Luc, non-anchored [4]: 1.2 nM; Average Signal (RLU) at 100 nM [5]: 4910 RLU; EC50 [5]: 0.3 nM"
B3,64.7,0.0143,221000,0.8,1.15,0.00104,904000,11.1,0.7,0.9,1,1.7,1.1,0,3,3,4,3,6,4,"binding result (mfGITR.mmh): no binding; fold activation, T-cell proliferation, plate-bound Ab 10.6 nM, donor 8 [2]: 1 fold; fold activation, T-cell proliferation, plate-bound Ab 10.6 nM, mean [2]: 3 fold; fold activation, T-cell proliferation, 33 nM, FcgR anchored, donor 1 [3]: 1.8 fold; fold activation, T-cell proliferation, 33 nM, FcgR anchored, donor 2 [3]: 1 fold; fold activation, T-cell proliferation, 33 nM, FcgR anchored, donor 3 [3]: 1.4 fold; fold activation, T-cell proliferation, 33 nM, FcgR anchored, donor 4 [3]: 1.5 fold; fold activation, T-cell proliferation, 33 nM, FcgR anchored, donor 5 [3]: 2 fold; fold activation, T-cell proliferation, 33 nM, FcgR anchored, mean [3]: 1.5 fold; % Activation, NF-kB-Luc, non-anchored [4]: 20%; % Blocking, NF-kB-Luc, non-anchored [4]: 80%; EC50, hGITR activation, NF-kB-Luc, non-anchored [4]: 1.2 nM; IC50, blocking of hGITRL stimulation, NF-kB-Luc, non-anchored [4]: 0.9 nM; Average Signal (RLU) at 100 nM [5]: 8390 RLU; EC50 [5]: 1.4 nM"
